Measured values: paper PMC10889563, “The Multienzyme Complex Nature of Dehydroepiandrosterone Sulfate Biosynthesis” (International Journal of Molecular Sciences, 2024)

T1: full-length steroid 17-alpha-hydroxylase/17,20-lyase (CYP17A1full) (UniProt P05093 1-508)
T1 construct: steroid 17-alpha-hydroxylase/17,20 lyase (CYP17A1), full-length recombinant form; also called full-length CYP17A1
T1 sequence (looked up): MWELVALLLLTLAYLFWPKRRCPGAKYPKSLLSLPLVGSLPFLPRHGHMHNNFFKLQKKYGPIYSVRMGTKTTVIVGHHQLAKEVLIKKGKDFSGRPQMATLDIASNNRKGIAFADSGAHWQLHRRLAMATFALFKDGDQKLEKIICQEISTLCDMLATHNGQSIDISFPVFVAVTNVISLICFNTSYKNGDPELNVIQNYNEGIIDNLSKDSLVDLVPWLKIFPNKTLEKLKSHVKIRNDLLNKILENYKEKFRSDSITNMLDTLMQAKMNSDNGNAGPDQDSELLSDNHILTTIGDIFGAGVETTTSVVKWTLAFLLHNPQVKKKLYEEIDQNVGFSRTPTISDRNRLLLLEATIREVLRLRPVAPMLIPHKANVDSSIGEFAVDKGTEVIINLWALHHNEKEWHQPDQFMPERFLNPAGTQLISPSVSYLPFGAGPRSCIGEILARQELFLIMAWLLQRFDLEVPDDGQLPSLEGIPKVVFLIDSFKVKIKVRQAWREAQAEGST

B1: sulfotransferase SULT1E1 (enzyme, human, UniProt P49888 1-294, looked up)
chain: MNSELDYYEKFEEVHGILMYKDFVKYWDNVEAFQARPDDLVIATYPKSGTTWVSEIVYMIYKEGDVEKCKEDVIFNRIPFLECRKENLMNGVKQLDEMNSPRIVKTHLPPELLPASFWEKDCKIIYLCRNAKDVAVSFYYFFLMVAGHPNPGSFPEFVEKFMQGQVPYGSWYKHVKSWWEKGKSPRVLFLFYEDLKEDIRKEVIKLIHFLERKPSEELVDRIIHHTSFQEMKNNPSTNYTTLPDEIMNQKLSPFMRKGITGDWKNHFTVALNEKFDKHYEQQMKESTLKFRTEI
notes: cytosolic sulfotransferase SULT1E1, human, recombinant; The oligomeric state in the assay is not known to the authors; source: E. coli DH5α, purified (Ni-NTA agarose, hydroxyapatite)

Tests used:
Settings in all cases: both partners purified
sulfotransferase SULT1E1 [1] = biological target: B1; assay: SPR; SULT1E1 or SULT2A1 covalently immobilised on CM5 chip via amino groups; CYP17A1full, CYP17A1tr or CYB5A injected at 50 to 5000 nM in HBS-EP+ (10 mM HEPES, 150 mM NaCl, 3 mM EDTA, 0.05% P20, pH 7.4), 25 °C; no PAPS; 1:1 Langmuir model
sulfotransferase SULT1E1 [2] = biological target: B1; assay: SPR; SULT1E1 or SULT2A1 covalently immobilised on CM5 chip via amino groups; CYP17A1full or CYB5A injected at 50 to 5000 nM in HBS-EP+, 25 °C; with 1 mM PAPS; 1:1 Langmuir model
[3] = biological target: T1, full-length steroid …; assay: SPR; SULT1E1 or SULT2A1 covalently immobilised on CM5 chip via amino groups; CYP17A1full, CYP17A1tr or CYB5A injected at 50 to 5000 nM in HBS-EP+ (10 mM HEPES, 150 mM NaCl, 3 mM EDTA, 0.05% P20, pH 7.4), 25 °C; no PAPS; 1:1 Langmuir model
[4] = biological target: T1, full-length steroid …; assay: SPR; SULT1E1 or SULT2A1 covalently immobilised on CM5 chip via amino groups; CYP17A1full or CYB5A injected at 50 to 5000 nM in HBS-EP+, 25 °C; with 1 mM PAPS; 1:1 Langmuir model
[5] = biological target: T2, NADPH-dependent cytochrome P450 reductase (CPR) (UniProt P16435 1-677, FAD and FMN cofactors; species (human assumed, rat possible) and construct limits are only in Figure S5 or cited work); assay: SPR; CPR covalently immobilised on CM5 chip via amino groups; SULT1E1 or SULT2A1 as analyte; HBS-EP+, 25 °C; with 1 mM PAPS; 1:1 Langmuir model
T2 sequence (P16435 whole entry): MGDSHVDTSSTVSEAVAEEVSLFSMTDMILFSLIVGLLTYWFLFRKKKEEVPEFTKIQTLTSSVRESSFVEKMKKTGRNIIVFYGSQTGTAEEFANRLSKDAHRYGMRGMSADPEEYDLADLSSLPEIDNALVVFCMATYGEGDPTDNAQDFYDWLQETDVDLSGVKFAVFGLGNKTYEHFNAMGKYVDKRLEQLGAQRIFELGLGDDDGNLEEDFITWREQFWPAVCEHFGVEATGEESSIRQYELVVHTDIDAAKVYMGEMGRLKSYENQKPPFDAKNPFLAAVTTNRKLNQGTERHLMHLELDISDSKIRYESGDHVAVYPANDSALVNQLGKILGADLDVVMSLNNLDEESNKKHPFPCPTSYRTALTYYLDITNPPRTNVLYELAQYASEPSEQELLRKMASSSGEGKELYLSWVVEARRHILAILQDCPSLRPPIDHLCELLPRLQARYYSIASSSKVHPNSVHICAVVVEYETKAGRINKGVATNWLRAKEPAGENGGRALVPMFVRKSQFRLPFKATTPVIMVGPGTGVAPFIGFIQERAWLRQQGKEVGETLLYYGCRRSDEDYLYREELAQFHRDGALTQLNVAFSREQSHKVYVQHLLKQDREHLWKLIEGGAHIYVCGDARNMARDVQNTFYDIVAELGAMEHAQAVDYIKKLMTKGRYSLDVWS

[6] = biological target: T2, NADPH-dependent cytochrome P450 …; assay: SPR; CPR covalently immobilised on CM5 chip via amino groups; SULT1E1 or SULT2A1 as analyte; HBS-EP+, 25 °C; no PAPS; 1:1 Langmuir model

| Kd (sulfotransferase SULT1E1 [1]) | koff (sulfotransferase SULT1E1 [1]) | kon (sulfotransferase SULT1E1 [1]) | Kd (sulfotransferase SULT1E1 [2]) | koff (sulfotransferase SULT1E1 [2]) | kon (sulfotransferase SULT1E1 [2]) | Kd [3] | koff [3] | kon [3] | Kd [4] | koff [4] | kon [4] | Kd [5] | koff [5] | kon [5] | Kd [6] | koff [6] | kon [6] | Binder |
| --- | --- | --- | --- | --- | --- | --- | --- | --- | --- | --- | --- | --- | --- | --- | --- | --- | --- | --- |
| 71 ± 8 nM | 0.00098 s⁻¹ | 13800 M⁻¹ s⁻¹ | 88 ± 8 nM | 0.00067 s⁻¹ | 7650 M⁻¹ s⁻¹ |  |  |  |  |  |  |  |  |  |  |  |  | microsomal cytochrome b5 (CYB5A) (natural protein, UniProt P00167 1-134, looked up, microsomal cytochrome b5 (CYB5A), recombinant) MAEQSDEAVKYYTLEEIQKHNHSKSTWLILHHKVYDLTKFLEEHPGGEEVLREQAGGDATENFEDVGHSTDAREMSKTFIIGELHPDDRPKLNKPPETLITTIDSSSSWWTNWVIPAISAVAVALMYRLYMAED |
|  |  |  |  |  |  | 196 ± 21 nM | 0.00058 s⁻¹ | 2960 M⁻¹ s⁻¹ | 138 ± 15 nM | 0.00076 s⁻¹ | 5520 M⁻¹ s⁻¹ |  |  |  |  |  |  | B1 |
|  |  |  |  |  |  | 124 ± 11 nM | 0.00055 s⁻¹ | 4450 M⁻¹ s⁻¹ | 105 ± 12 nM | 0.00137 s⁻¹ | 13100 M⁻¹ s⁻¹ | 957 ± 89 nM | 0.00051 s⁻¹ | 670 M⁻¹ s⁻¹ | 1370 ± 126 nM | 0.00078 s⁻¹ | 570 M⁻¹ s⁻¹ | sulfotransferase SULT2A1 (enzyme, human, UniProt Q06520 1-285, looked up, cytosolic sulfotransferase SULT2A1, human, recombinant; source: E. coli Rosetta, purified (Ni-NTA agarose, hydroxyapatite)) MSDDFLWFEGIAFPTMGFRSETLRKVRDEFVIRDEDVIILTYPKSGTNWLAEILCLMHSKGDAKWIQSVPIWERSPWVESEIGYTALSETESPRLFSSHLPIQLFPKSFFSSKAKVIYLMRNPRDVLVSGYFFWKNMKFIKKPKSWEEYFEWFCQGTVLYGSWFDHIHGWMPMREEKNFLLLSYEELKQDTGRTIEKICQFLGKTLEPEELNLILKNSSFQSMKENKMSNYSLLSVDYVVDKAQLLRKGVSGDWKNHFTVAQAEDFDKLFQEKMADLPRELFPWE |
